Experimental findings from patent US20250134988A1 (WISTAR INSTITUTE OF ANATOMY AND BIOLOGY, published 2025) are described below.

For one experiment, the target named is T1, CoV2_5P_FPKO1 (SARS-CoV-2, UniProt P0DTC2 14-1208).
T1 construct: also called 5P KO1
Nature of the experiment: ELISA. (ELISA stands for enzyme-linked immunosorbent assay.)

The target in another experiment is T2, CoV2_5P_NonSFP (SARS-CoV-2, UniProt P0DTC2 14-1208).
T2 construct: also called scrambled fusion peptide spike
Nature of the experiment: ELISA, AUC, on 5P spikes with swapped fusion peptides.

Experiment [1] deals with T3, CoV2_5P prefusion-stabilized spike protein (SARS-CoV-2, UniProt P0DTC2 14-1208).
T3 construct: also called 5P trimer; wildtype 5P
Briefly: ELISA, AUC ratio to wildtype C2691.

Changes are numbered by the printed parent chain. Numbers in names are those of the source.

B1: C2691 (antibody, V domains shown)
VH: QVQLQQSGPELVRPGESVKISCKGSGYTFTDYAMHWVKQSHAKSLEWIGIISFYYDNTKYNQNFKGKATMTVDKSSSTAYMELARLTSEDSAIYFCASQGIHYYGSFAYWGQGTLVTVSA
VL: DIVMTQSQKFMSTSVGDRVSVSCKASQNVGTNLGWYQQKPGQSPKALIYSASYRYSGVPDRFTGSGSGTDFTLTISNVQSEDLAEYFCQQYNSSPLTFGAGTKLELK
notes: also called lineage HV1-67/KV6-15 antibody C2691
Take B1: the binding result with CoV2_5P_FPKO1 is “binds”.

B2: Y111A (antibody, V domains shown)
VH: B1 VH with Y103A
VL: B1 VL
notes: member of the group m29; also called C2691 Y111A; C2691 CDR3 alanine scanning mutant
Regarding B2, in the experiment with CoV2_5P_NonSFP, the binding result is on record as “no binding”.

B3: Q107A (antibody, V domains shown)
VH: B1 VH with Q99A
VL: B1 VL
notes: member of the group m29; also called C2691 Q107A; C2691 CDR3 alanine scanning mutant
Turning to B3, the binding result with CoV2_5P_NonSFP is reported as “no binding”.

B4: I109A (antibody, V domains shown)
VH: B1 VH with I101A
VL: B1 VL
notes: member of the group m29; also called C2691 I109A; C2691 CDR3 alanine scanning mutant
Take B4: the binding result is listed as “no binding” in the experiment with CoV2_5P_NonSFP and “binds” in experiment [1].

B5: H110A (antibody, V domains shown)
VH: B1 VH with H102A
VL: B1 VL
notes: member of the group m29; also called C2691 H110A; C2691 CDR3 alanine scanning mutant
As to B5, the results for the binding result (in the experiment with CoV2_5P_NonSFP; in experiment [1]) were “no binding” and “binds”, respectively.

B6: Y112A (antibody, V domains shown)
VH: B1 VH with Y104A
VL: B1 VL
notes: member of the group m29; also called C2691 Y112A; C2691 CDR3 alanine scanning mutant
With B6, the binding result with CoV2_5P_NonSFP is given as “no binding”; in experiment [1], “binds”.
